In US20240287156A1 (published 2024):

Legend:
[1] = target: T1, MAGEA4 peptide on HLA-A*01:01 (human); test: IFN-gamma ELISA after 18 h; 1x10^5 TCR-transduced T cells with 5x10^4 peptide-loaded K562-A*01:01; two donors pooled, non-linear regression; full-length, on cells
T1 peptide: EVDPASNTY
Procedure: FIG. 6. […] The results of two donors were pooled and normalized as percentage of max. The depicted EC50 value was calculated by non-linear regression.
To calculate the EC50 value, non-linear regression was used to create a dose-response curve (FIG. 6). […] The K562 cells express HLA-A*01:01.

[2] = target: T2, MAGEA4 peptide on HLA-A*01:01 (human); test: cytokine release
T2 peptide: WVQENYLEY
Procedure: (§1) FIG. 7. […] IFNγ release to the supernatant was measured by ELISA after 18 hours of coculture.

[3] = target: T3, MAGEA4 peptide on HLA-A*01:01 (human); test: cytokine release
T3 peptide: LVTCLGLSY
Procedure: as §1

[4] = target: T4, MAGEA3 peptide on HLA-A*01:01 (human); test: cytokine release
T4 peptide: EVDPIGHLY
Procedure: as §1

[5] = target: T5, MAGEA4 peptide on HLA-A*01:01 (human); test: cytokine release
T5 peptide: KEVDPASNTY
Procedure: as §1

[6] = target: T6, MAGEA4 peptide on HLA-A*01:01 (human); test: cytokine release
T6 peptide: TLVTCLGLSY
Procedure: as §1

[7] = target: T7, MAGEA4 peptide on HLA-A*01:01 (human); test: cytokine release
T7 peptide: WVQENYLEYR
Procedure: as §1

[8] = target: T8, MAGEA4 peptide on HLA-A*01:01 (human); test: cytokine release
T8 peptide: TQDWVQENY
Procedure: as §1

[9] = target: T9, MAGEA4 peptide on HLA-A*01:01 (human); test: cytokine release
T9 peptide: ELAHFLLRKY
Procedure: as §1

[10] = target: T10, MAGEA4 peptide on HLA-A*01:01 (human); test: cytokine release
T10 peptide: DWVQENYLEY
Procedure: as §1

[11] = target: T11, titin peptide on HLA-A*01:01 (human); test: cytokine release
T11 peptide: ESDPIVAQY
Procedure: as §1

[12] = target: T12, MAGEA4 peptide on HLA-A*01:01 (human); test: cytokine release
T12 peptide: EVDPASNTYT
Procedure: as §1

[13] = target: T13, MAGEA4 peptide on HLA-A*01:01 (human); test: cytokine release
T13 peptide: LTQDWVQENY
Procedure: as §1

[14] = target: T14, MAGEA4 peptide on HLA-A*01:01 (human); test: cytokine release
T14 peptide: TTEEQEAAV
Procedure: as §1

B1: CTC-TCR127 (TCR)
alpha TRAV35*01 CDR3: AGQLWGGSNYKLT
beta TRBV5-1*01 CDR3: ASSLAGTGAHFITNEKLF
[1]
  EC50 of peptide: 7.6 nM
[2]
  binding result: no recognition
[3]
  binding result: no recognition
[4]
  binding result: no recognition
[5]
  binding result: recognises
[6]
  binding result: no recognition
[7]
  binding result: no recognition
[8]
  binding result: no recognition
[9]
  binding result: no recognition
[10]
  binding result: no recognition
[11]
  binding result: no recognition
[12]
  binding result: recognises
[13]
  binding result: no recognition
[14]
  binding result: no recognition
